US20230416341A1, “IMPROVED THROMBIN INHIBITORS FOR TREATMENT OF THROMBOEMBOLIC CONDITIONS” (priority 2020, published 2023)

Test system: occluded carotid artery
Assay: Experimental thrombosis and thrombolysis of the carotid artery (electrolytic injury, rtPA/anticoagulant combination, vessel recanalization)
Type: in vivo, mice
Conditions: rtPA therapy alone, 10 mg/kg bolus/infusion, blood flow assessed for 60 minutes
Description: Thrombosis: Electrolytic injury was used to generate in situ thrombotic occlusion of the carotid artery in anaesthetised mice, as described (Jackson et al, Nature Medicine 2005; Schoenwaelder et al, J Biol Chem, 2007). Baseline blood flow through the carotid artery was measured using an ultrasound Doppler flow probe. The flow probe was removed, and vessel injury was delivered in the presence of stasis, through placement of a distal haemostatic clamp (Micro Serrefine Clamp, 18055-05, Fine Science Tools, Canada). Delivery of an electrical current (8 mA or 28 mA for 3 minutes) was achieved using a lesion making device (Model 53500, Ugo Basile, Comerio, VA, Italy), with the injury site flushed constantly with saline to prevent tissue dehydration. […]
Thrombolysis: Intravenous thrombolysis was commenced 15 minutes following stable thrombotic vessel occlusion, as monitored with the flow probe. rtPA was administered via jugular catheter using a Harvard Apparatus syringe pump (Cat #704504; Pump Elite 11 I/W Single Syringe Pump, NSW, Australia). […] Carotid artery blood flow was assessed for 60 minutes following commencement of treatment. […] Following thrombolytic therapy, return of carotid artery blood flow was assessed using the mean blood flow recorded with LabChart software (version 7.0, ADInstruments, NSW, Australia). […]

B1: rtPA: thrombolytic agent recombinant tissue plasminogen activator (protein, UniProt P00750 36-562, looked up)
Tissue-type plasminogen …: SYQVICRDEKTQMIYQQHQSWLRPVLRSNRVEYCWCNSGRAQCHSVPVKSCSEPRCFNGGTCQQALYFSDFVCQCPEGFAGKCCEIDTRATCYEDQGISYRGTWSTAESGAECTNWNSSALAQKPYSGRRPDAIRLGLGNHNYCRNPDRDSKPWCYVFKAGKYSSEFCSTPACSEGNSDCYFGNGSAYRGTHSLTESGASCLPWNSMILIGKVYTAQNPSAQALGLGKHNYCRNPDGDAKPWCHVLKNRRLTWEYCDVPSCSTCGLRQYSQPQFRIKGGLFADIASHPWQAAIFAKHRRSPGERFLCGGILISSCWILSAAHCFQERFPPHHLTVILGRTYRVVPGEEEQKFEVEKYIVHKEFDDDTYDNDIALLQLKSDSSRCAQESSVVRTVCLPPADLQLPDWTECELSGYGKHEALSPFYSERLKEAHVRLYPSSRCTSQHLLNRTVTDNMLCAGDTRSGGPQANLHDACQGDSGGPLVCLNDGRMTLVGIISWGLGCGQKDVPGVYTKVTNYLDWIRDNMRP
vessel recanalization: remains occluded
